± gives the standard deviation of the averaged measurements.
How the values were obtained:
MCF7 = experiment: percentage of EdU-negative (G0-arrested) nuclei per well, 72 h; higher = more G0 arrest; conditions: reference: sequence is the full UniProt precursor, the tested protein was the secreted form or ectodomain
hTERT-HMEC = experiment: as above; conditions: reference: sequence is the full UniProt precursor, the tested protein was the secreted form or ectodomain
[1] = protein concentration 0.0125714 µM
[2] = protein concentration 0.125714 µM
[3] = protein concentration 0.0225 µM
[4] = protein concentration 0.03125 µM
[5] = protein concentration 0.3125 µM
[6] = protein concentration 0.01025 µM
[7] = protein concentration 0.1025 µM
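Also: secreted proteins added to cultured cells, EdU pulse at the end, nuclei found by Hoechst imaging, EdU status from nuclear versus surrounding ring intensity ratio, PBS as neutral control.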

With “MRENMARGPCNAPRWASLMVLVAIGTAVTAAVNPGVVVRISQKGLDYASQQGTAALQKELKRIKIPDYSDSFKIKHLGKGHYSFYSMDIREFQLPSSQISMVPNVGLKFSISNANIKISGKWKAQKRFLKMSGNFDLSIEGMSISADLKLGSNPTSGKPTITCSSCSSHINSVHVHISKSKVGWLIQLFHKKIESALRNKMNSQVCEKVTNSVSSELQPYFQTLPVMTKIDSVAGINYGLVAPPATTAETLDVQMKGEFYSENHHNPPPFAPPVMEFPAAHDRMVYLGLSDYFFNTAGLVYQEAGVLKMTLRDDMIPKESKFRLTTKFFGTFLPEVAKKFPNMKIQIHVSASTPPHLSVQPTGLTFYPAVDVQAFAVLPNSSLASLFLIGMHTTGSMEVSAESNRLVGELKLDRLLLELKHSNIGPFPVELLQDIMNYIVPILVLPRVNEKLQKGFPLPTPARVQLYNVVLQPHQNFLLFGADVVYK” the “percentage of EdU-negative” value (MCF7; [1]) was 24.5 ± 2.8%, the “percentage of EdU-negative” value (MCF7; [2]) was 29.1 ± 5% and the “percentage of EdU-negative” value (hTERT-HMEC; [1]) was 6.02 ± 1.5%. The “percentage of EdU-negative” value (hTERT-HMEC; [2]) was 35.1 ± 4%.

“MAWPLCTLLLLLATQAVALAWSPQEEDRIIEGGIYDADLNDERVQRALHFVISEYNKATEDEYYRRLLRVLRAREQIVGGVNYFFDIEVGRTICTKSQPNLDTCAFHEQPELQKKQLCSFQIYEVPWEDRMSLVNSRCQEA” was tested, and the “percentage of EdU-negative” value (MCF7; [3]) was 25.7 ± 2.2%, the “percentage of EdU-negative” value (MCF7; protein concentration 0.225 µM) was 24 ± 0.52% and the “percentage of EdU-negative” value (hTERT-HMEC; [3]) was 4.46 ± 0.44%. For the same sequence, the “percentage of EdU-negative” value (hTERT-HMEC; protein concentration 0.225 µM) was 5.26 ± 0.68%.

With “MLFSALLLEVIWILAADGGQHWTYEGPHGQDHWPASYPECGNNAQSPIDIQTDSVTFDPDLPALQPHGYDQPGTEPLDLHNNGHTVQLSLPSTLYLGGLPRKYVAAQLHLHWGQKGSPGGSEHQINSEATFAELHIVHYDSDSYDSLSEAAERPQGLAVLGILIEVGETKNIAYEHILSHLHEVRHKDQKTSVPPFNLRELLPKQLGQYFRYNGSLTTPPCYQSVLWTVFYRRSQISMEQLEKLQGTLFSTEEEPSKLLVQNYRALQPLNQRMVFASFIQAGSSYTTGEMLSLGVGILVGCLCLLLAVYFIARKIRKKRLENRKSVVFTSAQATTEA [Q9ULX7]” the “percentage of EdU-negative” value (MCF7; [4]) was 24.3 ± 0.34%, the “percentage of EdU-negative” value (MCF7; [5]) was 24.31 ± 0.24% and the “percentage of EdU-negative” value (hTERT-HMEC; [4]) was 4.94 ± 0.17%. The “percentage of EdU-negative” value (hTERT-HMEC; [5]) was 4.94 ± 0.42%.

In the case of “MVRARHQPGGLCLLLLLLCQFMEDRSAQAGNCWLRQAKNGRCQVLYKTELSKEECCSTGRLSTSWTEEDVNDNTLFKWMIFNGGAPNCIPCKETCENVDCGPGKKCRMNKKNKPRCVCAPDCSNITWKGPVCGLDGKTYRNECALLKARCKEQPELEVQYQGRCKKTCRDVFCPGSSTCVVDQTNNAYCVTCNRICPEPASSEQYLCGNDGVTYSSACHLRKATCLLGRSIGLAYEGKCIKAKSCEDIQCTGGKKCLWDFKVGRGRCSLCDELCPDSKSDEPVCASDNATYASECAMKEAACSSGVLLEVKHSGSCNSISEDTEEEEEDEDQDYSFPISSILEW”, the “percentage of EdU-negative” value (MCF7; [6]) is reported as 25.7 ± 1.4%, the “percentage of EdU-negative” value (MCF7; [7]) is reported as 26.2 ± 0.46% and the “percentage of EdU-negative” value (hTERT-HMEC; [6]) is reported as 5.35 ± 0.64%. The “percentage of EdU-negative” value (hTERT-HMEC; [7]) was 6.11 ± 0.15%.

In the case of “MTLLPGLLFLTWLHTCLAHHDPSLRGHPHSHGTPHCYSAEELPLGQAPPHLLARGAKWGQALPVALVSSLEAASHRGRHERPSATTQCPVLRPEEVLEADTHQRSISPWRYRVDTDEDRYPQKLAFAECLCRGCIDARTGRETAALNSVRLLQSLLVLRRRPCSRDGSGLPTPGAFAFHTEFIHVPVGCTCVLPRSV [Q9P0M4]”, the “percentage of EdU-negative” value (MCF7; [4]) is reported as 26.7 ± 2.1%, the “percentage of EdU-negative” value (MCF7; [5]) is reported as 26.1 ± 1.7% and the “percentage of EdU-negative” value (hTERT-HMEC; [4]) is reported as 5.54 ± 0.085%. For the same sequence, the “percentage of EdU-negative” value (hTERT-HMEC; [5]) was 5.3 ± 0.055%.

In the case of “MPAFNRLFPLASLVLIYWVSVCFPVCVEVPSETEAVQGNPMKLRCISCMKREEVEATTVVEWFYRPEGGKDFLIYEYRNGHQEVESPFQGRLQWNGSKDLQDVSITVLNVTLNDSGLYTCNVSREFEFEAHRPFVKTTRLIPLRVTEEAGEDFTSVVSEIMMYILLVFLTLWLLIEMIYCYRKVSKAEEAAQENASDYLAIPSENKENSAVPVEE [Q9NY72]”, the “percentage of EdU-negative” value (MCF7; [4]) is reported as 25.4 ± 0.68%, the “percentage of EdU-negative” value (MCF7; [5]) is reported as 25.4 ± 1.8% and the “percentage of EdU-negative” value (hTERT-HMEC; [4]) is reported as 4.7 ± 0.6%. For the same sequence, the “percentage of EdU-negative” value (hTERT-HMEC; [5]) was 4.76 ± 0.95%.

In the case of “MASEIHMTGPMCLIENTNGRLMANPEALKILSAITQPMVVVAIVGLYRTGKSYLMNKLAGKKKGFSLGSTVQSHTKGIWMWCVPHPKKPGHILVLLDTEGLGDVEKGDNQNDSWIFALAVLLSSTFVYNSIGTINQQAMDQLYYVTELTHRIRSKSSPDENENEVEDSADFVSFFPDFVWTLRDFSLDLEADGQPLTPDEYLTYSLKLKKGTSQKDETFNLPRLCIRKFFPKKKCFVFDRPVHRRKLAQLEKLQDEELDPEFVQQVADFCSYIFSNSKTKTLSGGIQVNGPRLESLVLTYVNAISSGDLPCMENAVLALAQIENSAAVQKAIAHYEQQMGQKVQLPTETLQELLDLHRDSEREAIEVFIRSSFKDVDHLFQKELAAQLEKKRDDFCKQNQEASSDRCSALLQVIFSPLEEEVKAGIYSKPGGYRLFVQKLQDLKKKYYEEPRKGIQAEEILQTYLKSKESMTDAILQTDQTLTEKEKEIEVERVKAESAQASAKMLQEMQRKNEQMMEQKERSYQEHLKQLTEKMENDRVQLLKEQERTLALKLQEQEQLLKEGFQKESRIMKNEIQDLQTKMRRRKACTIS”, the “percentage of EdU-negative” value (MCF7; [3]) is reported as 26.5 ± 3.6%, the “percentage of EdU-negative” value (MCF7; protein concentration 0.225 µM) is reported as 29.1 ± 1.2% and the “percentage of EdU-negative” value (hTERT-HMEC; [3]) is reported as 4.44 ± 0.5%. The “percentage of EdU-negative” value (hTERT-HMEC; protein concentration 0.225 µM) was 12.6 ± 1.4%.

— the supplement of paper PMC11316812
